Data published in patent US20120142585A1 (TEMPLE UNIVERSITY OF THE C0MMONWEALTH SYSTEM OF HIGHER …, published 2012).
Where no end group is shown, it is not given here. [ ]: non-standard residue; d: D form. NMeR = CN[C@@H](CCCNC(=N)N)C(=O)O; aThr = C[C@H](O)[C@H](N)C(=O)O; Nva = CCC[C@H](N)C(=O)O; Ahx = NCCCCCC(=O)O; βAla = NCCC(=O)O

Key:
[1] = molecular target: T1, leptin receptor (ObR) naturally expressed on MCF-7, LN229 and LN18 cells (human); assay: cell-based or functional assay
[2] = molecular target: T1, leptin receptor (ObR) naturally …; assay: cell-based or functional assay; remark: listed apart in the source

| Binder | EC50, proliferation of ObR-positive cancer cells in the absence of leptin [1] [nM] | IC50, proliferation of ObR-positive cancer cells in the presence of leptin (6 nM) [1] [nM] | IC100, proliferation of ObR-positive cancer cells in the presence of leptin (6 nM) [1] [nM] | IC50, proliferation and XTT metabolic activity assays, LN229 and MCF-7 cells with leptin [2] [nM] |
| --- | --- | --- | --- | --- |
| TE[Nva]VALSR[Ahx]-NH2 (N-terminus assumed; SMILES CCC[C@H](NC(=O)[C@H](CCC(=O)O)NC(=O)[C@@H](N)[C@@H](C)O)C(=O)N[C@H](C(=O)N[C@@H](C)C(=O)N[C@@H](CC(C)C)C(=O)N[C@@H](CO)C(=O)N[C@@H](CCCNC(=N)N)C(=O)NCCCCCC(N)=O)C(C)C) [peptide of amino acid sequence Thr-Glu-Nva-Val-Ala-Leu-Ser-Arg-AcpNH2 [SEQ ID NO:4]] | > 1000 | 5 | 50 | 2 to 3 |
| [dS]E[Nva]VALS[NMeR][βAla]-NH2 [peptide of amino acid sequence (D)-Ser-Glu-Nva-Val-Ala-Leu-Ser-N-MeArg-bAlaNH2 [SEQ ID NO:6]] | > 1000 | 0.2 | < 1 |  |
| TE[Nva][Nva]ALSR[Nva]-NH2 (N-terminus assumed; SMILES CCC[C@H](NC(=O)[C@H](CCCNC(=N)N)NC(=O)[C@H](CO)NC(=O)[C@H](CC(C)C)NC(=O)[C@H](C)NC(=O)[C@H](CCC)NC(=O)[C@H](CCC)NC(=O)[C@H](CCC(=O)O)NC(=O)[C@@H](N)[C@@H](C)O)C(N)=O) [peptide of amino acid sequence Thr-Glu-Nva-Nva-Ala-Leu-Ser-Arg-NvaNH2 [SEQ ID NO:47]] | > 1000 | 1000 |  |  |

Now from value to binder:

| EC50, proliferation of ObR-positive cancer cells in the absence of leptin [1] [nM] | IC50, proliferation of ObR-positive cancer cells in the presence of leptin (6 nM) [1] [nM] | IC100, proliferation of ObR-positive cancer cells in the presence of leptin (6 nM) [1] [nM] | IC50, proliferation and XTT metabolic activity assays, LN229 and MCF-7 cells with leptin [2] [nM] | Binder |
| --- | --- | --- | --- | --- |
| > 1000 | 0.2 | 5 |  | [aThr]E[Nva]VALSR[Ahx]-NH2 (N-terminus assumed; SMILES CCC[C@H](NC(=O)[C@H](CCC(=O)O)NC(=O)[C@@H](N)[C@H](C)O)C(=O)N[C@H](C(=O)N[C@@H](C)C(=O)N[C@@H](CC(C)C)C(=O)N[C@@H](CO)C(=O)N[C@@H](CCCNC(=N)N)C(=O)NCCCCCC(N)=O)C(C)C) [peptide of amino acid sequence alloThr-Glu-Nva-Val-Ala-Leu-Ser-Arg-AcpNH2 [SEQ ID NO:49]] |
| > 500 | 50 | 100 |  | E[Nva]VALSR[Ahx]-NH2 (N-terminus assumed; SMILES CCC[C@H](NC(=O)[C@@H](N)CCC(=O)O)C(=O)N[C@H](C(=O)N[C@@H](C)C(=O)N[C@@H](CC(C)C)C(=O)N[C@@H](CO)C(=O)N[C@@H](CCCNC(=N)N)C(=O)NCCCCCC(N)=O)C(C)C) [peptide of amino acid sequence Glu-Nva-Val-Ala-Leu-Ser-Arg-AcpNH2 [SEQ ID NO:51]] |
